Article PMC5303829, “A CAF40-binding motif facilitates recruitment of the CCR4-NOT complex to mRNAs targeted by Drosophila Roquin” (Nature Communications, 2017)

Columns and labels:
Conditions in all cases: both partners purified
[1] = molecular target: T1, Hs NOT module (NOT1-SHD, NOT2-C, NOT3-C) (human, UniProt A5YKK6 1833-2361; Q9NZN8 350-540; O75175 607-748); assay: pull-down; in vitro MBP pulldown: purified MBP-tagged Roquin fragments (40 μg) with equimolar purified CCR4-NOT proteins or subcomplexes on amylose resin; 50 mM HEPES-NaOH pH 7.5, 200 mM NaCl, 2 mM DTT; 1 h; maltose elution, SDS-PAGE, Coomassie
T1 construct: NOT1 superfamily homology domain (SHD), human, residues 1833–2361; NOT2-C, human, residues 350–540; NOT3-C, human, residues 607–748; also called NOT1-2-3; source: E. coli, purified as previously described; copies: + +

[2] = molecular target: T2, Hs CAF40 ARM domain (residues 19–285) (human, UniProt Q92600 19-285); assay: as above
T2 construct: CAF40 (CNOT9) armadillo repeat domain, human, residues 19–285; also called CNOT9; purified CAF40 protein; source: E. coli BL21 (DE3) Star, purified (IMAC, heparin, gel filtration)

[3] = molecular target: T2, Hs CAF40 ARM domain (residues 19–285); assay: crystal structure; synthetic CBM peptide mixed with the purified Hs CAF40 ARM domain in an equimolar ratio; 0.1 M NaOAc pH 5.0, 17.5% PEG 4000, 0.1 M AmSO4, 18 °C; 2.15 Å

T2 sequence (Q92600 19-285): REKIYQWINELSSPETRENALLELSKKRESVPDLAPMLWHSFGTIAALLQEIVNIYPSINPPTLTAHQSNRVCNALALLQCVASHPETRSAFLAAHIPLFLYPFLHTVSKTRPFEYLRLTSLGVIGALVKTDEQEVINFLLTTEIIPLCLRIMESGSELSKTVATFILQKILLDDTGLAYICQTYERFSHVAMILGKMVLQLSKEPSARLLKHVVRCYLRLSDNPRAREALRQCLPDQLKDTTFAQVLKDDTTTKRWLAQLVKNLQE
T1 sequence (A5YKK6 1833-2361, chain 1 of 3): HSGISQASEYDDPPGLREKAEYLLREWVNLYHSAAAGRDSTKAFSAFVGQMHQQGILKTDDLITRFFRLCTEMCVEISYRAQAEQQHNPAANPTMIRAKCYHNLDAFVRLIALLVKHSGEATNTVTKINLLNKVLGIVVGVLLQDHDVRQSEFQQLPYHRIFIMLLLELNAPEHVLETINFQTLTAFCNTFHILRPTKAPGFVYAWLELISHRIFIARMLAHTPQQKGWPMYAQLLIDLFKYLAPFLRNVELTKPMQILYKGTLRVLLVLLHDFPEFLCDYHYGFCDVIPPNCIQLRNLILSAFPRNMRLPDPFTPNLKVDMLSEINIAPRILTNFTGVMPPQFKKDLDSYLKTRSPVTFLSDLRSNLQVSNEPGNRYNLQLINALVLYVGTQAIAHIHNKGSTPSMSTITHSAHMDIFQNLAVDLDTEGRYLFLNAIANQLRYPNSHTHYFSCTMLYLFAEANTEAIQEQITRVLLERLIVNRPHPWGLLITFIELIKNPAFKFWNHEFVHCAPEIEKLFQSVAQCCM
T1 sequence (Q9NZN8 350-540, chain 2 of 3): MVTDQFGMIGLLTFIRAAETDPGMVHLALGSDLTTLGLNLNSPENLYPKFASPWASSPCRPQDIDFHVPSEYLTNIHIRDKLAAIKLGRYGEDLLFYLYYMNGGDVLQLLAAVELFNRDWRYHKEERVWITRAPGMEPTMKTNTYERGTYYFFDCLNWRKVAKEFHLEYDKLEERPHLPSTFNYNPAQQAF
T1 sequence (O75175 607-748, chain 3 of 3): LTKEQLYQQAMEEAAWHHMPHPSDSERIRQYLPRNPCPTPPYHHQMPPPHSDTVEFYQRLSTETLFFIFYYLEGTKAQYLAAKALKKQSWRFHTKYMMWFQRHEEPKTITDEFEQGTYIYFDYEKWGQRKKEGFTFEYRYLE

Binder	binding result [1]	binding result [2]	binding result [3]
MBP-tagged Dm Roq-CN (domain or fragment, Drosophila melanogaster, UniProt Q9VV48 501-702, looked up, source: E. coli BL21 (DE3) Star, purified; not shown: MBP, N-terminal, kept) HYMGSPRGYLDPSLGLSPGGGLPPSHHSPITRLIVPSRYDSRFSGFGGGTPRIPSPREYQANPVAPTQRNANPPNFSVNSNLHKGYMLPASGGDVFHLANPWEQAYLAQQQHPPQHPQQQQPPSSKPNPSRPLSILPATADTSFFEKKPPNSVSIDLDRVPEVNVDAVPLFRRSNNNHNNNNSNSHNNNNNNHGSSLLFWNN	binds	–	–
MBP-tagged Dm Roq-CC (domain or fragment, Drosophila melanogaster, UniProt Q9VV48 702-819, looked up, also called MBP-Roq-CC; not shown: MBP, N-terminal, kept) NTGKDSANFVRSDSILDDDASTFDVPTGSSMLSIYGPICPKSSTTGNWNNFDLGYGGFKSDRNDSFNANKQQQPMWGRKPQLMSEDSFEGGIDSGMMLQLEKNLVDIVDPDDSGIKVD	binds	binds	–
EGGIDSGMMLQLEKNLVDIVDPD (peptide, UniProt Q9VV48 790-812, looked up, source: E. coli BL21 (DE3) Star, purified; not shown: MBP, N-terminal, kept) [MBP-tagged Dm Roquin CBM alone]	–	binds	–
EGGIDSGMMLQLEKNLVDIVD (peptide, UniProt Q9VV48 790-810, looked up, also called Dm CBM; source: synthetic peptide (EMC Microcollections)) [Dm Roquin CBM peptide (residues 790–810)]	–	–	binds
